Patent US20050175719A1, “Procyanidins for treatment and prevention of enzymatic irritation to the skin” (priority 2004, published 2005)

B1: STI: pure serine protease inhibitor (soybean trypsin inhibitor) from Sigma, used as positive control (protein, UniProt P01070 25-205, looked up)
Trypsin inhibitor A: DFVLDNEGNPLENGGTYYILSDITAFGGIRAAPTGNERCPLTVVQSRNELDKGIGTIISSPYRIRFIAEGHPLSLKFDSFAVIMLCVGIPTEWSVVEDLPEGPAVKIGENKDAMDGWFRLERVSDDEFNNYKLVFCPQQAEDDKCGDIGISIDHDDGTRRLVVSKNKPLVVQFQKLDKESL
B2: Lactoferrin: commonly used antioxidant (protein, UniProt P02788 20-710, looked up)
Lactotransferrin: GRRRSVQWCAVSQPEATKCFQWQRNMRKVRGPPVSCIKRDSPIQCIQAIAENRADAVTLDGGFIYEAGLAPYKLRPVAAEVYGTERQPRTHYYAVAVVKKGGSFQLNELQGLKSCHTGLRRTAGWNVPIGTLRPFLNWTGPPEPIEAAVARFFSASCVPGADKGQFPNLCRLCAGTGENKCAFSSQEPYFSYSGAFKCLRDGAGDVAFIRESTVFEDLSDEAERDEYELLCPDNTRKPVDKFKDCHLARVPSHAVVARSVNGKEDAIWNLLRQAQEKFGKDKSPKFQLFGSPSGQKDLLFKDSAIGFSRVPPRIDSGLYLGSGYFTAIQNLRKSEEEVAARRARVVWCAVGEQELRKCNQWSGLSEGSVTCSSASTTEDCIALVLKGEADAMSLDGGYVYTAGKCGLVPVLAENYKSQQSSDPDPNCVDRPVEGYLAVAVVRRSDTSLTWNSVKGKKSCHTAVDRTAGWNIPMGLLFNQTGSCKFDEYFSQSCAPGSDPRSNLCALCIGDEQGENKCVPNSNERYYGYTGAFRCLAENAGDVAFVKDVTVLQNTDGNNNEAWAKDLKLADFALLCLDGKRKPVTEARSCHLAMAPNHAVVSRMDKVERLKQVLLHQQAKFGRNGSDCPDKFCLFQSETKNLLFNDNTECLARLHGKTTYEKYLGPQYVAGITNLKKCSTSPLLEACEFLRK

Test system: trypsin
Experiment: Inhibition of trypsin-induced cleavage of fluorescent BODIPY FL casein (EnzChek protease assay kit)
Format: biochemical
Source text: The procedure of Example 1 was independently repeated using the procyanidin-containing grape seed extract and STI, respectively, at 0.1% concentration. In addition, the procedure of Example 1 was repeated on the five individual monomer units typically found in OPC, at up to three different concentration levels.

Molecule	% trypsin inhibition (Table 4, concentration (w/w) 0.1 %) [%]	% trypsin inhibition (concentration 0.0005 % (w/w)) [%]	% trypsin inhibition (concentration 0.001 % (w/w)) [%]	% trypsin inhibition (concentration 0.0025 % (w/w)) [%]	% trypsin inhibition (concentration 0.005 % (w/w)) [%]	% trypsin inhibition (concentration 0.01 % (w/w)) [%]	% trypsin inhibition (concentration 0.025 % (w/w)) [%]	% trypsin inhibition (concentration 0.05 % (w/w)) [%]	% trypsin inhibition (concentration 0.075 % (w/w)) [%]	trypsin inhibition activity (in words) (at concentrations up to 0.1%)	% trypsin inhibition (concentration 0.1 % (w/w)) [%]
B1	89	17	30	44	55	74	85	87	63	–	–
B2	–	–	−2	–	–	−4	–	–	–	no trypsin inhibition activity	0
